Results on three molecules are retold here after patent publication US20260248947A1, “Methods of Treating Cancer Using Anti-HER2 Antibody-Drug Conjugates and HER2 Kinase Inhibitors” (Seagen Inc., priority 2023, published 2026).

Assay [1] deals with HER2 cell surface protein levels. The assay can be described thus: qFACS analysis of cell-surface HER2 levels upon tucatinib treatment. It counts as cell-based, human. As to conditions: 100 nM tucatinib. The procedure:
HER2 cell surface levels were determined by qFACS analysis. Briefly, cells were stained with an anti-HER2 antibody (R&D Systems, Inc.; #MAB1129) and Zombie Aqua (BioLegend, Inc.; #423101) for dead cell exclusion. Cells were fixed, and HER2 receptor copy number per cell was quantified using a QIFIKIT (Agilent Dako) per the manufacturer's protocol.
(§1) The internalization experiments were conducted by detecting an antibody-bound pH sensitive probe using automated time-lapse microscopy. Briefly, breast cancer cell lines SK-BR-3, BT-474, HCC-202, and EFM-192C and gastric cancer cell lines NCI-N87 and OE19 were seeded in 96-well flat clear-bottom black tissue culture-treated microplates (Coming, cat #3603). Cells were plated at 1.5×10^4-2.5×10^4 cells/200 μL/well in growth medium and allowed to adhere overnight at 37° C. Disitamab and isotype control antibody (human IgG) were labeled with IncuCyte Fabfluor-pH Red Antibody Labeling Reagent (Essen Bioscience, cat #4722) according to the manufacturer's protocol. Volumes of the test antibodies, Fabfluor reagent and medium required were calculated at 2× the final assay concentration, and the Fabfluor reagent was added at a molar ratio of 1:3 to the antibody. Antibody and Fabfluor were mixed gently and incubated at 37° C. for 15 minutes. Media containing Fabluor-labeled disitamab ([…] final concentration) with or without tucatinib (100 nM final concentration) was added to cells. The plates were arranged on microplate trays in the IncuCyte SX3 system (Essen Bioscience), and scans were acquired using the Standard protocol. Phase data and red channel data (acquisition time set to 400 ms) were collected, with 4 images per well every 30 minutes for the first 6 hours and every 2 hours after that for up to 72.5 hours with the objective set at 10×. Quantification of fluorescence signal intensity was performed using the IncuCyte software analysis tool. Cell surface HER2 density was quantified using qFACS analysis as described supra.

Assay [2] deals with T1, HER2 (Homo sapiens, UniProt P04626). Put plainly: Internalization assay of Fabfluor-labeled disitamab with or without tucatinib (IncuCyte). It counts as cell-based. Also on record: endogenous in cells; host or cells: SK-BR-3, BT-474, HCC-202, EFM-192C, NCI-N87, OE19. As to conditions: 100 nM tucatinib. The procedure: as §1
The analysis was refined and tuned per cell line utilizing phase area confluence and manual image selection for preview and training of the algorithm. Upon completion of the analysis, red object integrated intensity (RCU×μm^2/image) data were graphed using GraphPad Prism. The experiment was performed in duplicate (technical replicates) for two biological replicates.

Assay [3] addresses T1, HER2. Put plainly: Internalization assay of Fabfluor-labeled disitamab compared to trastuzumab (IncuCyte). The format is cell-based. The arrangement: endogenous in cells; host or cells: SK-BR-3, BT-474, HCC-202, EFM-192C, BT-483, CAMA-1, NCI-N87, OE19, RERF-GC-1B. The procedure:
The internalization experiments were conducted by detecting an antibody-bound pH sensitive probe using automated time-lapse microscopy. Briefly, breast cancer cell lines SK-BR-3, BT-474, HCC-202, EFM-192C, BT-483, and CAMA-1 and gastric cancer cell lines NCI-N87, OE19, and RERF-GC-1B were seeded in 96-well flat clear-bottom black tissue culture-treated microplates (Corning, cat #3603). Cells were plated at 1.5×10^4-2.5×10^4 cells/200 μL/well in growth medium and allowed to adhere overnight at 37° C. Disitamab, trastuzumab, and isotype control antibody (human IgG) were labeled with IncuCyte Fabfluor-pH Red Antibody Labeling Reagent (Essen Bioscience, cat #4722) according to the manufacturer's protocol. Volumes of the test antibodies, Fabfluor reagent and medium required were calculated at 2× the final assay concentration, and the Fabfluor reagent was added at a molar ratio of 1:3 to the antibody. Fabfluor dye fluoresces only upon exposure to an acidified compartment, namely endocytic vesicles and lysosomes, signifying internalization and intracellular processing of the ADC. Antibody and Fabfluor were mixed gently and incubated at 37° C. for 15 minutes. Media containing Fabfluor-labeled disitamab or trastuzumab ([…] final concentration) was added to cells. The plates were arranged on microplate trays in the IncuCyte SX3 system (Essen Bioscience), and scans were acquired using the Standard protocol. Phase data and red channel data (acquisition time set to 400 ms) were collected, with 4 images per well every 30 minutes for the first 6 hours and every 2 hours after that for up to 40 hours with the objective set at 10×. Quantification of fluorescence signal intensity was performed using the IncuCyte software analysis tool.

Assay [4] deals with HER2+ locally advanced or metastatic breast cancer (LA/mBC). As to conditions: subjects that progressed following taxane plus trastuzumab treatment; cited from earlier work.

Turning to `Cc1cc(Nc2ncnc3ccc(NC4=NC(C)(C)CO4)cc23)ccc1Oc1ccn2ncnc2c1` [tucatinib, Tucatinib], the “cell-surface HER2 levels over time compared with untreated cells” value in assay [1] (BT-474), in assay [1] (BT-483), in assay [1] (CAMA-1), in assay [1] (EFM-192C), in assay [1] (HCC-202) and in assay [1] (NCI-N87) was “increase” throughout. Moreover, the “cell-surface HER2 levels over time compared with untreated cells” value in assay [1] (OE19), in assay [1] (RERF-GC-1B) and in assay [1] (SK-BR-3) was “increase” throughout.

With disitamab, the “disitamab internalization in the presence of tucatinib compared to disitamab alone” value with HER2 [2] (EFM-192C), in the assay with HER2 [2] (NCI-N87), with HER2 [2] (OE19) and with HER2 [2] (SK-BR-3) was “increased” in each case. Also, the “disitamab internalization as compared to trastuzumab” value in the assay with HER2 [3] (BT-474), with HER2 [3] (BT-483), with HER2 [3] (CAMA-1), with HER2 [3] (EFM-192C), with HER2 [3] (HCC-202) and with HER2 [3] (NCI-N87) was “Increased” throughout. The “disitamab internalization as compared to trastuzumab” value with HER2 [3] (OE19), with HER2 [3] (RERF-GC-1B) and with HER2 [3] (SK-BR-3) was “Increased” each time.

As for trastuzumab emtansine [T-DM1], in assay [4], the “overall response (either complete or partial response)” value is 34.2% and the “subjects alive without disease progression at 12 months” value is on record as 34.1%.
